Reference: PMC10786891, “Massively parallel profiling of RNA-targeting CRISPR-Cas13d”
Positions count from the first letter of the chain named. In names and notes the source's numbering stands.

Molecular target: T1, EsCas13d, nuclease-dead (Eubacterium siraeum, UniProt B0MS50, R295A;H300A;R849A;H854A)
T1 sequence: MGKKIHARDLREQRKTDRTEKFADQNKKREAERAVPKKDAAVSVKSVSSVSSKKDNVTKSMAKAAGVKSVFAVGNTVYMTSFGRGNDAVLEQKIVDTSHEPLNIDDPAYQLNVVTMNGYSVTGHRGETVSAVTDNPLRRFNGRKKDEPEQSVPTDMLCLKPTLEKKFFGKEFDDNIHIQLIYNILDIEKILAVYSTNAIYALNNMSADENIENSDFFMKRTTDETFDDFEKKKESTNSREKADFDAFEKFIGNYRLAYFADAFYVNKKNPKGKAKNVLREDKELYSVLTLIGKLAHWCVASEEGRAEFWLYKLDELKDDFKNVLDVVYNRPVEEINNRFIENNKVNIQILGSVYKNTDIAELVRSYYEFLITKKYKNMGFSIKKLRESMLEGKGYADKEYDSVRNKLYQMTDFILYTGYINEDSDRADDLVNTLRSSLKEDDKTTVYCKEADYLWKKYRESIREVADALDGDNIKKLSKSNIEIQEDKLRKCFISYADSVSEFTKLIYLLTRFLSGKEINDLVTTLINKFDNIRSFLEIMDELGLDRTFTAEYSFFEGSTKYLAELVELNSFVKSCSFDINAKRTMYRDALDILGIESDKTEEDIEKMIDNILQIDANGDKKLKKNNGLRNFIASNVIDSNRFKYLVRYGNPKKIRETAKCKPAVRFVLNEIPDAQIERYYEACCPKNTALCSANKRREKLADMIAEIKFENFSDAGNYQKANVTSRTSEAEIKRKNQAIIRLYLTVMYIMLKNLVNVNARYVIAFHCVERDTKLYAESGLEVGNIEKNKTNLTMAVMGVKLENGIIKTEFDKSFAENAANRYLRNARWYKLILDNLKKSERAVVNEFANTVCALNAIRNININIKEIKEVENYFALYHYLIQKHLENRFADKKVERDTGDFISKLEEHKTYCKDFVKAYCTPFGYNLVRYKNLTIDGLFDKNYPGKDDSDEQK
Assay: crRNA (strand 1, pre-loaded); Mg2+; 40 mM Tris-HCl pH 7.5, 150 mM NaCl, 6 mM MgCl2, 1 mM DTT, 0.1% Tween-20, 0.2 mg/ml BSA; 25 C; 10 min per concentration, then washed
Conditions: tags: His6-TwinStrep-SUMO cleaved; N-terminal SNAP kept (SNAP-Surface 488); label: 3' end held by stalled T7 RNA polymerase

B1: target 1 insU 3' of 21,insG 3' of 1 (mixed)
RNA 1: CACCCGUGCAAAAAUGCAGGGGUCUAAAACUGAGCGGAUAACCUCUCUAUGG
RNA 2: GGGAAUGGAUCCACAUCUACGAAUUCGUACCUAUAGAGAGGUUAUCCGCUCAGCCGAGAUCGGAAGAGCACACGU
- Kd: 24.9 ± 2.3 nM

B2: target 1 U10C,U19C (mixed)
RNA 1: B1 RNA 1
RNA 2: GGGAAUGGAUCCACAUCUACGAAUUCGUACCACAGAGAGGUCAUCCGCUCACCGAGAUCGGAAGAGCACACGU
- Kd: 70 ± 12 nM

B3: target 1 U3A,U8G (mixed)
RNA 1: B1 RNA 1
RNA 2: B2 RNA 2 with C33U, C42U, U44G, U49A
- Kd: 11.9 ± 0.5 nM

B4: target 1 insU 3' of 21,insC 3' of 1 (mixed)
RNA 1: B1 RNA 1
RNA 2: B1 RNA 2 with G53C
- Kd: 20.5 ± 0.8 nM

B5: target 3 A5G,U21A (mixed)
RNA 1: CACCCGUGCAAAAUUGCAGGGGUCUAAAACGACCUGAAUAUUUCAGAUCAAA
RNA 2: GGGAAUGGAUCCACAUCUACGAAUUCGUUUAUGAUCUGAAAUAUUCGGGUCUGCAGAUCGGAAGAGCACACGU
- Kd: 98 ± 44.5 nM

B6: target 3 insU 3' of 22,insU 3' of 11 (mixed)
RNA 1: B5 RNA 1
RNA 2: GGGAAUGGAUCCACAUCUACGAAUUCGUUUUUUGAUCUGAAAUUAUUCAGGUCUGCAGAUCGGAAGAGCACACGU
- Kd: 62 ± 19.5 nM

B7: target 3 insA 3' of 15,insC 3' of 2 (mixed)
RNA 1: B5 RNA 1
RNA 2: GGGAAUGGAUCCACAUCUACGAAUUCGUUUUUGAUCUAGAAAUAUUCAGGUCCUGCAGAUCGGAAGAGCACACGU
- Kd: ~82 nM

B8: target 3 insU 3' of 5,insC 3' of 4 (mixed)
RNA 1: B5 RNA 1
RNA 2: GGGAAUGGAUCCACAUCUACGAAUUCGUUUUUGAUCUGAAAUAUUCAUGCGUCUGCAGAUCGGAAGAGCACACGU
- Kd: 6.45 ± 0.65 nM

B9: target 3 insU 3' of 4,insC 3' of 3 (mixed)
RNA 1: B5 RNA 1
RNA 2: B8 RNA 2 with U48G, G49U, C50G, G51C
- Kd: 17.4 ± 1.7 nM

B10: target 3 insA 3' of 7,insU 3' of 6 (mixed)
RNA 1: B5 RNA 1
RNA 2: B8 RNA 2 with C46A, A47C, G49A, C50G
- Kd: 17.9 ± 1.2 nM

B11: target 3 G4C,A5C (mixed)
RNA 1: B5 RNA 1
RNA 2: B5 RNA 2 with A31U, G47C, G48C
- Kd: 130 ± 40 nM

B12: target 3 insC 3' of 9,insU 3' of 6 (mixed)
RNA 1: B5 RNA 1
RNA 2: B8 RNA 2 with U44C, C46U, A47C, G49A, C50G
- Kd: 82 ± 14.5 nM

B13: target 3 insU 3' of 19 (mixed)
RNA 1: B5 RNA 1
RNA 2: GGGAAUGGAUCCACAUCUACGAAUUCGUUUUUGUAUCUGAAAUAUUCAGGUCUGCAGAUCGGAAGAGCACACGU
- Kd: 78 ± 29.5 nM

B14: target 3 insA 3' of 22,insA 3' of 3 (mixed)
RNA 1: B5 RNA 1
RNA 2: B6 RNA 2 with U31A, U44A, A45U, U47C, C48A, A49G, G51A
- Kd: 22.2 ± 4.4 nM

B15: target 3 insC 3' of 7,insC 3' of 2 (mixed)
RNA 1: B5 RNA 1
RNA 2: B8 RNA 2 with A47C, U48A, C50G, G51U, U52C
- Kd: ~120 nM

B16: target 3 C1A,U10G (mixed)
RNA 1: B5 RNA 1
RNA 2: B5 RNA 2 with A31U, U42G, G47A, C51A
- Kd: ~90.5 nM

B17: target 3 U2G,A5U (mixed)
RNA 1: B5 RNA 1
RNA 2: B5 RNA 2 with A31U, G47U, U50G
- Kd: 9.2 ± 1.2 nM

B18: target 3 U2G,A18G (mixed)
RNA 1: B5 RNA 1
RNA 2: B5 RNA 2 with A31U, A34G, G47A, U50G
- Kd: 59.5 ± 7.5 nM

B19: target 3 G4U,U21G (mixed)
RNA 1: B5 RNA 1
RNA 2: B5 RNA 2 with A31G, G47A, G48U
- Kd: 65 ± 14 nM

B20: target 3 insC 3' of 11,insC 3' of 2 (mixed)
RNA 1: B5 RNA 1
RNA 2: B7 RNA 2 with A38G, G39A, A42C
- Kd: 67 ± 10 nM

B21: target 3 A5U,U7A (mixed)
RNA 1: B5 RNA 1
RNA 2: B5 RNA 2 with A31U, U45A, G47U
- Kd: 62.4 ± 5.4 nM

B22: target 3 C6A,A11G (mixed)
RNA 1: B5 RNA 1
RNA 2: B5 RNA 2 with A31U, A41G, C46A, G47A
- Kd: 98 ± 23 nM

B23: target 3 insA 3' of 2,insA 3' of 2 (mixed)
RNA 1: B5 RNA 1
RNA 2: B8 RNA 2 with U48G, C50U, G51A, U52A
- Kd: 30.4 ± 3.8 nM

B24: target 3 U2G,C6G (mixed)
RNA 1: B5 RNA 1
RNA 2: B5 RNA 2 with A31U, C46G, G47A, U50G
- Kd: 21.8 ± 2.7 nM

B25: target 3 A18G,U22A (mixed)
RNA 1: B5 RNA 1
RNA 2: B5 RNA 2 with U30A, A31U, A34G, G47A
- Kd: 14.8 ± 1.75 nM

B26: target 3 insU 3' of 3,insG 3' of 2 (mixed)
RNA 1: B5 RNA 1
RNA 2: B8 RNA 2 with U48G, C50U, G51U, U52G
- Kd: 27 ± 4.5 nM

B27: target 3 C1G,C6G (mixed)
RNA 1: B5 RNA 1
RNA 2: B5 RNA 2 with A31U, C46G, G47A, C51G
- Kd: 18.7 ± 3.15 nM

B28: target 3 U2A,U21C (mixed)
RNA 1: B5 RNA 1
RNA 2: B5 RNA 2 with A31C, G47A, U50A
- Kd: 39.5 ± 11 nM

B29: target 3 insA 3' of 15,insG 3' of 2 (mixed)
RNA 1: B5 RNA 1
RNA 2: B7 RNA 2 with C52G
- Kd: 68.5 ± 21.5 nM

B30: target 3 G3C,U22A (mixed)
RNA 1: B5 RNA 1
RNA 2: B5 RNA 2 with U30A, A31U, G47A, G49C
- Kd: 16.5 ± 1.4 nM

B31: target 3 insA 3' of 3,insA 3' of 3 (mixed)
RNA 1: B5 RNA 1
RNA 2: B8 RNA 2 with U48G, C50A, G51A
- Kd: 15.5 ± 1.65 nM

B32: target 3 G3U,G4A (mixed)
RNA 1: B5 RNA 1
RNA 2: B5 RNA 2 with A31U, G47A, G48A, G49U
- Kd: 7.75 ± 1.05 nM
